Reference: patent publication US20190211098A1 (Genentech, published 2019)
Where a chain is given by its changes, count along the chain named. In names and notes the source's numbering stands.

B1: Anti-mouse PILRA antibody 12H1.8 (antibody, mouse IgG2a, kappa, V domains shown)
VH: QVQLQQSGAELVGPGTSVKISCQASGYTFTNYWIGWAKQRPGHGLEWIGDIYPGGGYTNYNKKFKGKATLTADKSSSTAYMQFSSLTSEDSAIYYCSRSRGHGSNFYWYFDVWGTGTTVTVSS
VL: DIVMTQSPKFMSTSVGDRVNITCRASQDVNTAVAWFQQKPGRSPKLLIYSASYRYTGPDHFTGSGSGTDFTFTISSVQAEDLAVYYCQQHYTTPLTFGAGTKLEIKR
B2: NPDC1-His (ligand)
chain: GHPDVAACPGSLDCALKRRARCPPGAHACGPCLQPFQEDQQGLCVPRMRRPPGGGRPQPRLEDEIDFLAQELARKESGHSTPPLPKDRQRLPEPATLGFSARGQGLELGLPSTPGTPTPTPHTSLGSPVSSDPVHMSPLEPRGGQGD
notes: not shown: His tag
B3: PILRA R78 variant extracellular domain fused to murine IgG2a Fc (Fc fusion)
chain: QPSGSTGSGPSYLYGVTQPKHLSASMGGSVEIPFSFYYPWELATAPDVRISWRRGHFHRQSFYSTRPPSIHKDYVNRLFLNWTEGQKSGFLRISNLQKQDQSVYFCRVELDTRSSGRQQWQSIEGTKLSITQAVTTTTQRPSSMTTTWRLSSTTTTTGLRVTQGKRRSDSWHISLET
notes: also called PILRA-mFc R78; PILRA-Fc R78; not shown: Fc region of murine IgG2a, C-terminal tag
B4: PILRA G80 variant extracellular domain fused to murine IgG2a Fc (Fc fusion)
chain: B3 chain with R59G, S61G
notes: also called PILRA-mFc G80; not shown: Fc region of murine IgG2a, C-terminal tag
B5: PILRA A140 variant (Q140A) extracellular domain fused to murine IgG2a Fc (Fc fusion)
chain: B3 chain with R59G, Q121A
notes: also called PILRA-mFc A140; PILRA-Fc A140; not shown: Fc region of murine IgG2a, C-terminal tag
B6: NPDC1 extracellular domain (1-190 aa) fused to murine IgG2a Fc (Fc fusion)
chain: GHPDVAACPGSLDCALKRRARCPPGAHACGPCLQPFQEDQQGLCVPRMRRPPGGGRPQPRLEDEIDFLAQELARKESGHSTPPLPKDRQRLPEPATLGFSARGQGLELGLPSTPGTPTPTPHTSLGSPVSSDPVHMSPLEPRGGQGDGLALVLILA
notes: also called NPDC1-mFc; NPDC1-mFC; not shown: Fc region of murine IgG2a, C-terminal tag
B7: Mouse PILRA ligand C12orf53 fused to human IgG1 Fc (Fc fusion)
chain: SSHRSPPAPARPPCVRGGPSAPRHVCVWERAPPPSRSPRVPRSRRQVVPGTAPPATPSGFEEGPPSSQYPWAIVWGPTVSREDGGDPNSVNPGFLPLDYGFAAPHGLATPHPNSDSMRDDGDGLILGETPATLRPFLFGGRGEGVDP
notes: also called C12orf53-Fc; mouse C12orf53-Fc; not shown: human IgG1 Fc
B8: Anti-mouse PILRA antibody 12C6.9 (antibody, mouse IgG2a, kappa, V domains shown)
VH: QIQLVQSGPELKKPGETVKISCKASGYTFTTYGMSWMKQAPGKGLKWMGWINTYSGVPTYADDFKGRFAFSLETSASTAYLQISNLKDEDTARYFCARRDYGSSQWYFDVWSTGTTVTVSS
VL: DIVMTQSPKFMSISVGDRVSVTCKASQNVGTKVAWYQQKPGQSPKELIYSASYRFSGVPDRFTGSGSGTDFTLTISSVQSEDLAEYFCQQYNTYPLTFGAGTKLEIKR
B9: Isotype control antibody 12D4 (antibody, mouse IgG2a, kappa, V domains shown)
VH: QVQLQQSGAELVTPGASVKLSCKTSGHTFTSYWMNWVNQKPGQGLEWIGWIYGGSGNTKYNQKFQGKATLTVDTSSSTAYMELRSLTSDDSAVYFCASGTNFFDYWGQGTMVTVSS
VL: DIVMTQSHKFMSTSVGDRVSITCKASQDVSTAVAWYQQKPGQSPKLLIYSASYRYTGVPDRFTGSGSGTDFTFTISSVQAEDLAVYYCQQHYSTPLTFGAGTKLELKR

Legend:
[1] = target: T1, Mouse PILRA extracellular domain fused to human CD3 zeta chain transmembrane and intracellular domains, on … (mouse; human); assay: cell-based competitive ELISA: 293-PILRA stable cells, antibody titrated together with a fixed amount of mouse CD99-Fc, bound ligand-Fc detected with anti-human IgG-Fc-HRP
T1 construct: domain: transmembrane and intracellular domains; also called cell surface PILRA
T1 sequence (P20963 other isoform, or with tags, fused parts or gaps limits assumed): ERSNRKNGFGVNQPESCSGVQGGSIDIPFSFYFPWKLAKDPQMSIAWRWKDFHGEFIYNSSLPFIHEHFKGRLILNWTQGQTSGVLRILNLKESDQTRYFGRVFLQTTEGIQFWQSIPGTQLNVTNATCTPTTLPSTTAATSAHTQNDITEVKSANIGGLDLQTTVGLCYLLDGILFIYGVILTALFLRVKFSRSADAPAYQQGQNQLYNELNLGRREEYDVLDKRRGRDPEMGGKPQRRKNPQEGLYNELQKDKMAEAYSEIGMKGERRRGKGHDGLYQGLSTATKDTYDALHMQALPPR
Procedure: After plates were centrifuged at 1200 rpm for 5 min at 4° C., the supernatant was decanted and the mixture of the serially diluted antibody and the ligand-Fc was added. Plates were incubated at 4° C. for 1 h with gentle shaking. Cells were washed with ice-cold 0.1% BSA in PBS, pH 7.4 (wash buffer) by centrifuging the plate at 1200 rpm for 5 min at 4° C. and the cells were resuspended in 200 μl wash buffer. […] Plates were incubated at 4° C. for 1 hr with gentle shaking. Cells were washed with ice-cold wash buffer 4 times. Cells were resuspended in 100 μl of the substrate 3,3′,5,5′-tetramethyl benzidine (Moss Inc., TMBE-1000) and plates were incubated at room temperature for approximately 20 min for color development. The reaction was stopped by adding 1 M phosphoric acid. The absorbance was read at 450 nm using a microplate reader (Multiskan Ascent, Thermo Scientific, Waltham, Mass.). The titration curves were plotted using KaleidaGraph (Synerg Software, Reading, Pa.).

[2] = target: T2, Biotinylated mouse PILRA ECD (mouse, UniProt Q2YFS3 32-198, biotinylated (sites not given)); assay: competitive ELISA: biotinylated mouse PILRA ECD on Neutravidin plate, antibody titrated together with a fixed amount of mouse CD99-Fc, bound ligand-Fc detected with anti-human IgG-Fc-HRP
T2 construct: Captured on Neutravidin plates; also called mPILRA; recombinant PILRA ECD
T2 sequence (Q2YFS3 32-198 limits assumed): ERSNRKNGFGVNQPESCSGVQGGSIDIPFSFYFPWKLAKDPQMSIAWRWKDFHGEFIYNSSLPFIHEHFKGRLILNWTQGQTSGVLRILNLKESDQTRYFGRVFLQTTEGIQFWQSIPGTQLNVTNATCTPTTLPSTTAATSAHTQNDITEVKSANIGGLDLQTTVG

[3] = target: T2, Biotinylated mouse PILRA ECD; assay: competitive ELISA: biotinylated mouse PILRA ECD on Neutravidin plate, antibody titrated together with a fixed amount of mouse C12orf53-Fc, bound ligand-Fc detected with anti-human IgG-Fc-HRP
Procedure: The PILRA ECD-based competitive ELISA was performed as follows. […] Plates were blocked with 0.5% bovine serum albumin, 15 ppm Proclin 300 (Supelco, Bellefonte, Pa.) in PBS (80 μl/well) at room temperature for 1 h and washed. Biotinylated mouse PILRA ECD at 0.25 μg/ml (Genentech, Inc.) in 0.5% bovine serum albumin, 0.05% polysorbate 20, 15 ppm Proclin 300 in PBS, pH 7.4 (assay buffer) was added to the plates. After 1.5 hrs incubation, plates were washed. […] The mixture of the serially diluted antibody and ligand-Fc was added to the plates at 25 μl/well. After a 2 hrs incubation, plates were washed. […] After a 1 hr incubation, plates were washed and the substrate 3,3′,5,5′-tetramethyl benzidine (Moss Inc., TMBE-1000) was added. The reaction was stopped by adding 1 M phosphoric acid. The absorbance was read at 450 nm using a microplate reader (Multiskan Ascent, Thermo Scientific, Waltham, Mass.). The titration curves were plotted using KaleidaGraph (Synerg Software, Reading, Pa.).

[4] = target: B3; assay: SPR, NPDC1-His binding to PILRA variant
[5] = target: T3, Full length myc-DDK tagged PIANP, expressed on transfected 293T cells (human, UniProt Q8IYJ0 32-282); assay: flow cytometry: soluble PILRA-mFc variant (50 ug/ml) on myc-PIANP-transfected 293T cells, FITC anti-mouse IgG2a; MFI as % of G78 (= 100 %)
T3 construct: Bought construct (Origene Cat. No. RC207868); also called myc-PIANP; C12orf53 (human); not shown: myc-DDK tag of the Origene construct RC207868
T3 sequence: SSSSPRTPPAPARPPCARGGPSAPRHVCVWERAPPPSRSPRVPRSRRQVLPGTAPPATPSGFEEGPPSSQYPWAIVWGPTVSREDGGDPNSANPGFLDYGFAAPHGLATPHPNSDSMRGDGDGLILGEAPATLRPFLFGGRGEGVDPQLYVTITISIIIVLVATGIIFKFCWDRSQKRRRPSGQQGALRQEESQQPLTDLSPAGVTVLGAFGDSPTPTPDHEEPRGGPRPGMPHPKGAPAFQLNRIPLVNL

[6] = target: B2; assay: SPR, NPDC1-His binding to PILRA variant
[7] = target: T4, HSV-1 glycoprotein B, full length, expressed on transfected 293T cells (human herpes simplex virus type-1, UniProt P06437 31-904); assay: flow cytometry: soluble PILRA-mFc variant (50 ug/ml) on HSV-1 gB-transfected 293T cells, FITC anti-mouse IgG2a; MFI as % of G78 (= 100 %)
T4 construct: Construct cloned from EF157316 (strain KOSc); also called HSV-1 gB; human herpesvirus 1 strain KOSc glycoprotein B (EF157316)

[8] = target: B2; assay: SPR, NPDC1-His binding to PILRA variant; remark: listed apart in the source
[9] = target: B6; assay: SPR (ProteOn XPR36): PILRA-mFc A140 amine-coupled to a GLC chip, 100 nM NPDC1-mFc injected
Procedure: PILRA variant ligand binding Surface Plasmon Resonance (SPR) was performed as follows.
Next, the interaction of PILRA variants and ligands in vitro using surface plasmon resonance (SPR) was investigated.

[10] = target: T5, A72 variant of PILRA, full-length, expressed on transfected 293T cells (human, UniProt Q9UKJ1 20-303); assay: flow cytometry, soluble NPDC1-mFc 50 ug/ml on PILRA-variant-transfected 293T cells
T5 construct: Point mutation put into the full-length G78 construct by site-directed mutagenesis; also called R72 substituted to alanine
Procedure: (§1) Relative PILRA-ligand binding to PILRA variant transfected cells was performed as follows. […] Double positive cells were gated on the G78 sample and then the gates were overlaid on subsequent samples to maintain the same cell population throughout the experiment.
(§2) Cells were washed and NPDC1 and PILRA cell surface staining was assessed by flow cytometry using anti-mIgG2a-FITC and anti-PILRA antibodies, respectively. […] Binding of the G78 variant of PILRA to NPDC1 was considered 100%.

[11] = target: T6, G80 variant of PILRA, full-length, expressed on transfected 293T cells (human, UniProt Q9UKJ1 20-303); assay: as above
T6 construct: Point mutation put into the full-length G78 construct by site-directed mutagenesis; also called S80 substituted to glycine
Procedure: as §1, §2

[12] = target: T7, R78 variant of PILRA (AD-protective), full-length, on cells (human, UniProt Q9UKJ1 20-303); assay: as above
T7 construct: also called PILRA R78; rs1859788 variant
Procedure: as §1, §2

[13] = target: T8, A76 variant of PILRA, full-length, expressed on transfected 293T cells (human, UniProt Q9UKJ1 20-303); assay: as above
T8 construct: Point mutation put into the full-length G78 construct by site-directed mutagenesis; also called F76 substituted to alanine
Procedure: as §1, §2

[14] = target: T9, A140 variant of PILRA (Q140A), full-length, expressed on transfected 293T cells (human, UniProt Q9UKJ1 20-303); assay: flow cytometry, soluble NPDC1-mIgG2a on PILRA-variant-transfected 293T cells
T9 construct: Point mutation put into the full-length G78 construct by site-directed mutagenesis
Procedure: as §1

[15] = target: T10, A141 variant of PILRA (S141A), full-length, expressed on transfected 293T cells (human, UniProt Q9UKJ1 20-303); assay: as above
T10 construct: Point mutation put into the full-length G78 construct by site-directed mutagenesis
Procedure: as §1

[16] = target: T7, R78 variant of PILRA (AD-protective), …; assay: as above
Procedure: as §1

[17] = target: T11, Murine PILRA-His (mouse, UniProt Q2YFS3 32-198); assay: array SPR imaging, sandwich format: mAb 2 on the chip, murine PILRA-His 100 nM, then Fc-tagged ligand at 10 ug/ml; response normalised to the PILRA level
T11 construct: not shown: His tag
T11 sequence (Q2YFS3 32-198 limits assumed): as the sequence (Q2YFS3 32-198 limits assumed) above

[18] = target: T2, Biotinylated mouse PILRA ECD; assay: competitive ELISA: biotinylated mouse PILRA ECD on Neutravidin plate, antibody titrated together with a fixed amount of mouse CD99-Fc
[19] = target: T1, Mouse PILRA extracellular domain fused …; assay: cell-based competitive ELISA: 293-PILRA stable cells, antibody titrated together with a fixed amount of mouse CD99-Fc

B1
IC50 (read off the curve) [1]: ~8 nM | IC50 (read off the curve) [2]: ~4 nM | IC50 (read off the curve) [3]: ~4 nM

B2
Kd [4]: 76.5 nM | kon [4]: 6800 M⁻¹ s⁻¹

B3
binding result [5]: binds | fold lower affinity than the G78 variant [6]: ~4.5 fold | fold lower kon than the G78 variant [6]: ~3 fold | binding result [7]: binds

B4
Kd [8]: 30 nM | kon [8]: 17000 M⁻¹ s⁻¹ | binding result [5]: binds | binding result [7]: binds

B5
binding result [9]: binds

B6
% of G78 variant binding [10]: ~20 % of G78 variant | % of G78 variant binding [11]: ~60 % of G78 variant | % of G78 variant binding [12]: ~35 % of G78 variant | % of G78 variant binding [13]: ~20 % of G78 variant | % of G78 binding [14]: 22 % of G78 | % of G78 binding [15]: 117 % of G78 | % of G78 binding [16]: 44 % of G78 | binding result [17]: binds

B7
binding result [17]: binds

B8
IC50 (read off the curve) [2]: ~4 nM | IC50 (read off the curve) [3]: ~3 nM

B9
binding result [18]: no binding (tested: 200 nM) | binding result [19]: no binding (tested: 200 nM)
